Measurements taken from paper PMC9952435, “Characterization of Two Novel AmpC Beta-Lactamases from the Emerging Opportunistic Pathogen, Cedecea neteri” (Antibiotics, 2023).

Experiments:
[1] = target: rAmpC CNE-1 from C. neteri SSMD04 (Cedecea neteri, UniProt A0A089PY88); settings: CNE-1 compared with CDA-1 (ref 13)
[2] = tested on: C[C@@H](O)[C@H]1C(=O)N2C(C(=O)O)=C(SCCN=CN)C[C@H]12; assay: purified protein, by the assay type; settings: 37.0 °C
[3] = tested on: CO/N=C(\C(=O)N[C@@H]1C(=O)N2C(C(=O)O)=C(COC(N)=O)CS[C@H]12)c1ccco1; assay: purified protein, by the assay type; settings: 37.0 °C
[4] = tested on: CC1=C(C(=O)O)N2C(=O)[C@@H](NC(=O)[C@H](N)c3ccccc3)[C@H]2SC1; assay: purified protein, by the assay type; settings: 37.0 °C
[5] = tested on: CC1(C)S[C@@H]2[C@H](NC(=O)[C@H](N)c3ccccc3)C(=O)N2[C@H]1C(=O)O; assay: purified protein, by the assay type; settings: 37.0 °C
[6] = tested on: CO[C@@]1(NC(=O)Cc2cccs2)C(=O)N2C(C(=O)O)=C(COC(N)=O)CS[C@@H]21; assay: purified protein, by the assay type; settings: 37.0 °C
[7] = tested on: Cc1nnc(SCC2=C(C(=O)O)N3C(=O)[C@@H](NC(=O)Cn4cnnn4)[C@H]3SC2)s1; assay: purified protein, by the assay type; settings: 37.0 °C
[8] = tested on: O=C(Cc1cccs1)N[C@@H]1C(=O)N2C(C(=O)O)=C(/C=C/c3ccc([N+](=O)[O-])cc3[N+](=O)[O-])CS[C@H]12; assay: purified protein, by the assay type; settings: pH 7.0; 30.0 °C
[9] = tested on: rAmpC CNE-1 from C. neteri SSMD04; assay: Assay for ESAC and class B metallo-β-lactamase activity (nitrocefin hydrolysis with clavulanic acid or EDTA); assay type: biochemical; settings: 2 mM test substance, 500 nM rAmpC, 500 µM nitrocefin, 30 °C, 8 min
Protocol: (§1) The reactions carried out in the absence and presence of EDTA with purified rAmpC enzymes using the reporter substrate, nitrocefin, were performed. […] The class C β-lactamases are functionally cephalosporinases that are generally resistant to clavulanic acid. However, some AmpCs which show resistance to oxyimino-cephalosporins and are commonly sensitive to clavulanic acid were termed extended-spectrum AmpC β-lactamases (ESAC), similar to the extended-spectrum β-lactamases (ESBLs) of the A class according to the Bush-Jacoby classification. […] To test this aspect of ESAC activity, reactions were performed in the presence of clavulanic acid.
(§2) For each panel, all reactions contained 500 nM rAMpC protein and 500 µM nitrocefin.
(§3) The reactions testing ESBL activity (related to the observation that most ESBL enzymes are inhibited by clavulanic acid) were performed in the absence or presence of 2 mM clavulanic acid. Class B β-Lactamase activity was tested by reactions performed in the absence or presence of 2 mM ethylenediaminetetraacetic acid (EDTA).

[10] = tested on: rAmpC CNE-2 from C. neteri 33855; assay: as above; assay type: biochemical; settings: 2 mM test substance, 500 nM rAmpC, 500 µM nitrocefin, 30 °C, 8 min
Protocol: as §1, §2, §3

[11] = tested on: rAmpC CMH-4 from E. cloacae 13047; assay: as above; assay type: biochemical; settings: 2 mM test substance, 500 nM rAmpC, 500 µM nitrocefin, 30 °C, 8 min
Protocol: as §1, §2, §3

[12] = tested on: CDA-1 (AmpC from C. davisae); settings: cited from earlier work
[13] = target: rAmpC CMH-4 from E. cloacae ATCC 13047 (Enterobacter cloacae subsp. cloacae, UniProt A0A0H3CN55); assay: Michaelis-Menten kinetic analysis of substrate hydrolysis by purified rAmpC; settings: CMH-4 compared with E. cloacae P99 AmpC (ref 29)

Compound: CO[C@@]1(NC(=O)Cc2cccs2)C(=O)N2C(C(=O)O)=C(COC(N)=O)CS[C@@H]21 [Cefoxitin, cefoxitin]
- Km, fold higher than for CDA-1 from C. davisae [1]: 100 fold

Compound: (Cedecea neteri)
- Km [2]: 5 µM
- Km [3]: 5 µM
- Km [4]: 2 µM
- Km [5]: 72 µM
- Km [6]: 48 µM
- Km [7]: 67 µM
- Km [8]: 46 ± 5 µM
- kcat [8]: 1.93 ± 0.16 s⁻¹
- kcat/Km [8]: 41900 M⁻¹ s⁻¹

Compound: O=C(O)CN(CCN(CC(=O)O)CC(=O)O)CC(=O)O [EDTA, ethylenediaminetetraacetic acid]
- Inhibition of nitrocefin hydrolysis [9]: hydrolyzed the substrate, nitrocefin, in the presence of EDTA
- Inhibition of nitrocefin hydrolysis [10]: hydrolyzed the substrate, nitrocefin, in the presence of EDTA
- Inhibition of nitrocefin hydrolysis [11]: hydrolyzed the substrate, nitrocefin, in the presence of EDTA

Compound: C[C@@H](O)[C@H]1C(=O)N2C(C(=O)O)=C(SCCN=CN)C[C@H]12 [Imipenem, imipenem]
- Km [12]: ~2 µM

Compound: O=C(O)[C@H]1/C(=C/CO)O[C@@H]2CC(=O)N21 [clavulanic acid]
- Inhibition of nitrocefin hydrolysis [9]: not inhibited
- Inhibition of nitrocefin hydrolysis [10]: not inhibited
- Inhibition of nitrocefin hydrolysis [11]: completely inhibited

Compound: (Enterobacter cloacae subsp. cloacae ATCC 13047)
- Km [2]: 0.85 µM
- Km [3]: 0.35 µM
- Km [4]: 6.8 µM
- Km [5]: 7 µM
- Km [6]: 12 µM
- Km [8]: 11 ± 2 µM

Compound: O=C(Cc1cccs1)N[C@@H]1C(=O)N2C(C(=O)O)=C(/C=C/c3ccc([N+](=O)[O-])cc3[N+](=O)[O-])CS[C@H]12 [nitrocefin]
- kcat, fold less than for AmpC from E. cloacae P99 [13]: ~ 100 fold
